Here are results for 27 sequences from a protein production outcome set (Wang et al. 2014).

The series in a line: label from the status in PepcDB records.
Turning to “SNMQLDTLRRIVQEINSSVSLHDSLDIMVNQVADAMKVDVCSIYLLDERNQRYLLMASKGLNPESVGHVSLQLSEGLVGLVGQREEIVNLENASKHERFAYLPETGEEIYNSFLGVPVMYRRKVMGVLVVQNKQPQDFSEAAESFLVTLCAQLSGVIAHAHAVGNIDVFRKPSNGA”, the protein production entry is listed as “not failed”.

In the case of “SPEHGQAGRKIGEEGIVLLQNKDNVLPIDLKKARKIAVIGENAIKMMTVGGGSSSLKVKYEISPLDGLKNRVGSQAEVLYVRGYVGDPTGEYNGVQTGQDLKDDRSEDELLAEAVEVSKDADYVIFFGGLNKSNHQDCEDSDRASLGLPYAQDRVIGELAKVNKNLIVVNISGNAVAMPWVNEVPAIVQGWFLGSEAGTALASVLLGDANPSGKLPFTFPARLEDVGAHKLGEYPGNKEELAHSKNNGDTINEIYREDIFVGYRWADKEKIKPLFPFGHGLSYTTF”, the protein production result was “failed”. On to “SPEYGMPSVTFGSVHPSDVLDMPVDPNEPTYCLCHQVSYGEMIGCDNPDCSIEWFHFASCGADNQPRGKWXFPRCSQE”, for which the protein production result is listed as “not failed”. With “SPGSAAKGSELSERIESFVETLKRGGGPRSSEEMARETLGLLRQIITDHRWSNAGELMELIRREGRRMTAAQPSETTVGNMVRRVLKIIREEYGRLHGRTDESDQQESLHKLLTSGGLNEDFSFHYAQLQSNIIEAINELLVELEGTMENIAAQALEHIHSNEVIMTIGFSRTVEAFLKEAARKRKFHVIVAECAPFCQGHEMAVNLSKAGIETTVMTDAAIFAVMSRVNKVIIGTKTILANGALRAVTGTHTLALAAKHHSTPLIVCAPMFKLSPQFPNEEDSFHKFVAPEEVLPFTEGDILEKVSVHCPVFDYVPPELITLFISNIGGNAPSYIYRLMSELYHPDDHVL” the entry was “failed”; with “SPLGQIQLTIRHSSQRNKLIVVVHACRNLIAFSEDGSDPYVRMYLLPDKRRSGRRKTHVSKKTLNPVFDQSFDFSVSLPEVQRRTLDVAVKNSGGFLSKDKGLLGKVLVALASEELAKGWTQWYDLTED”, “not failed”.

“SPMANSGPLCCTICHERLEDTHFVQCPSVPSHKFCFPCSRESIKAQGATGEVYCPSGEKCPLVGSNVPWAFMQGEIATIL”: the protein production result is on record as “not failed”. In the case of “SPNPPKLTKQMNAIIDTVINYKDSSGRQLSEVFIQLPSRKELPEYYELIRKPVDFKKIKERIRNHKYRSLGDLEKDVMLLCHNAQTFNLEGSQIYEDSIVLQSVFKSARQ”, the protein production result was “not failed”. As to “SQEIVAGELERCFLAMPESVLPIVTMEERNDLCRRAGHLSGFTHTASLESSLGGTVTFLLNRNFIRIQTSTVGEVFMRILPFSDSSSVICVVTTVLHPVADSRIDFYTTEWKPLKTDRFWQQPRIEDFFLPHTDRQSYAYQAIYASLTPSYMQVSLSEESDTLSIRQTVTETLAEEEKPLAAIFLSPEPLVYRWQSGRFVRQVR”, the protein production entry was “not failed”.

Turning to “SQELTLSPGPAKLTPTLDPTHRMELILSTSPAELTLDPACQPKLPLDSTCQPEMTFNPGPTELTLDPEHQPEETPAPSLAELTLEPVHRRPELLDACADLINDQWPRSRTSRLHSLGQSSDAFPLCLMLLSPHPTLEAAPVVVGHARLSRVLNQPQSLLVETVVVARALRGRGFGRRLMEGLEVFARARGFRKLHLTTHDQVHFYTHLGYQLGEPVQGLVFTSRRLPATLLNAFPTAPSPRPPRKAPNLTAQAAPRGPKGPPLPPPPPLPECLTISPPVPSGPPSKSLLETQYQNVRGRPIFWMEKDI”, the protein production result is on record as “not failed”. The entry for “SQGLDTLLRDLTDRAVVQVPGAVACSVTVRRADRLMTLAGSTGLPSGLDLRQYENGSGPCVDAAESGDAQYCADLAEETRWPAYTEYALATGVRCVLALPLPIEGETGAALNLYGLVPGSLVQGLDAARAFAERAADAVNEALRIERRQASAADVRTALLSRSVIDQAVGMLMARERI” is “not failed”; for “SQPQQGKQYEVLPVSLQEYNLAPLTEAFALTCGHCRSMEEFVPQIESLTEQKVEKMHVTFNESAQISAIIFYTAVMQLDATPDKAFMADLFAAVQMGADATAEERQQAVEKAFESRNLISPYHLDEAQQEKLFEYITKAESITTRGQINSVPAFIVNGKYQVITGGHDSVEAMAETINYLLKQ” it is “not failed”; for “SRKRLSAPELRLSLTKGPGNDGASPTQSAPSSPDGSSDLEIDELETPSDSEQLDSGHEFEWEDELPRAEGLGTSETAERLGRGCMWDVTGEDGHHWRVFRMGPREQRVDMTVIEPYKKVLSHGGYHGDGLNAVILFASCYLPRSSIPNYTYVMEHLFRYMVGTLELLVAENYLLVHLSGGTSRAQVPPLSWIRQCYRTLDRRLRKNLRALVVVHATWYVKAFLALLRPFISSKFTRKIRFLDSLGELAQLISLDQVHIPEAVRQLDRDLHGSGGT” it is “failed”. The entry for “SSALSRNGSFITKEKKDTVLRQVRLDPCDLQPIFDDMLHFLNPEELRVIEEIPQAEDKLDRLFEIIGVKSQEASQTLLDSVYSHLPDLL” is “not failed”; for “SSETPAQCSIKQERISYTPPESPVPSYASSTPLHVPVPRALRMEEDSIRLPAHLRLQPIYWSRDDVAQWLKWAENEFSLRPIDSNTFEMNGKALLLLTKEDFRYRSPHSGDVLYELLQHILKQRKPRILFSPFFHPGNSIHTQPEVILHQNHEEDNCVQRTPRPSVDNVHHNPPTIELLHRSRSPITTNHRPSPDPEQRPLRSPLDNMIRRLSPAERAQGPRPHQENNHQESYPLSVSPMENNHCPASSESHPKPSSPRQESTRVIQLMPSPIMHPLILNPRHSVDFKQSRLSEDGLHREGKPINLSHREDLAYMNHIMVSVSPPEEHAMPIGRIADCRLLWDYVYQLLSDSRYENFIRWEDKESKIFRIVDPNGLARLWGNHKNRTNMTYEKMSRALRHYYKLNIIRKEPGQRLLFRFMKTPDEIMSGRTDRLEHLESQELDEQIYQEDEC” it is “not failed”. The entry for “SSKPPPKPVKPGEGGQVKVFRALYTFEPRTPDELYFEEGDIIYITDMSDTNWWKGTSKGRTGLIPSNYVAEQAESIDNPLHEAAKRGNLSWLRECLDNRVGVNGLDKAGSTALYWACHGGHKDIVEMLFTQPNIELNQQNKLGDTALHAAAWKGYADIVQLFLAKGARTDLRNIEKKLAFDMATNAACASLLKKKQGTDAVRTLSNAEDYLDDEDSD” is “failed”; for “SSKVIIPKIVGHRGVGKEGLAPENTLRSFVLCMERNIPYIETDLRVCKTGEIVLFHGTPEGTIPFYKDGTSRIGDLSLEELKRLDVGGGHTIPSLEELFVAIEEQKFNLKLNLELKGEEWKRKESGDHQRLLLLVEKYHMQERVDYCSFHHEALAHLKALCPDVKITYLFNYMGQPTPLDFVEQACYGDANGVSMLFHYLTKEQVCTAHEKGLSVTVWMPWIFDDSEEDWKKCLELQVDLICSNYPFGLMNFLSNISE” it is “not failed”; for “SSLICSISNEVPEHPCVSPVSNHVYERRLIEKYIAENGTDPINNQPLSEEQLIDIKVAHPIRPKPPSATSIPAILKALQDEWDAVMLHSFTLRQQLQTTRQELSHALYQHDAACRVIARLTKEVTAAREALATLKPQAGLIVPQAVPSSQPSVVGAGEPMDLGELVGMTPEIIQKLQDKATVLTTERKKRGKTVPEELVKPEELSKYRQVASHVGLHSASIPGILALDLCPSDTNKILTGGADKNVVVFDKSSEQILATLKGHTKKVTSVVFHPSQDLVFSASPDATIRIWSVPNASCVQVVRAHESAVTGLSLHATGDYLLSSSDDQYWAFSDIQTGRVLTKVTDETSGCSLTCAQFHPDGLIFGTGTMDSQIKIWDLKERTNVANFPGHSGPITSIAFSENGYYLATAADDSSVKLWDLRKLKNFKTLQLDNNFEVKSLIFDQSGTYLALGGTDVQIYICKQWTEILHFTEHSGLTTGVAFGHHAKFIASTGMDRSLKFYSL” it is “not failed”.

Regarding “SSPQDTCCPPDSWPALKVDYKPKGKLEDIGKGLKAYVVGNGPRAVIALNDVFGIESGHSKEICDAIADKGFTVVFPDVFRGKPLQVSDMSKLFDELPGWAKQFDYEPALRKDVVEVILPYLHDKLGFKSNDQIALAGFCWGAFMLFHLAGDTKLPGGPFACGVSFHPSVQIEGVFQRDPLQLIDRATCPQLLLPSAGEPDYMKEEGDAIKKLRAKPFGASCGVKTFPSMQHGWVNRGDRNDPQVVKEAQEALQLAVDFMMRHTKPKA”, the protein production result was “not failed”. The entry for “SSRKSGIGHEASLKRKAEEKLESYRKKIHMKNQAEEKAAEQFRMRLKNKQDEMKLEGDLRRSQRACQQLDVQKNIQVPREAWYWLRLEEETEEDEEEKEQDEDEYKSEDLSVLEKLQILTSYLREEHLYCIWCGTAYEDKEDLSSNCPGPTSADHD” is “failed”; for “SSSQDVLIHSDDPCHPANLICTLCKQFFHNNWCTGTGGGISIKDPNTNYYYLAPSGVQKEKMIPEDLFVMDAQTLEYLRSPKLYKPSACTPLFLACYQKKNAGAIIHTHSQNAVICSLLFGDEFRIANIEQIKAIPSGKVDPVTKKPMALSFFDTLKIPIIENMAHEDELIDDLHKTFKDYPDTCAVIVRRHGIFVWGPTIDKAKIFNEAIDYLMELAIKMYQMGIPPDCGIGEEKKHLKMASP” it is “not failed”; for “STGSATTTPIDSLDDAYITPVQIGTPAQTLNLDFDTGSSDLWVFSSETTASEVDGQTIYTPSKSTTAKLLSGATWSISYGDGSSSSGDVYTDTVSVGGLTVTGQAVESAKKVSSSFTEDSTIDGLLGLAFSTLNTVSPTQQKTFFDNAKASLDSPVFTADLGYHAPGTYNFGFIDTTAYTGSITYTAVSTKQGFWEWTSTGYAVGSGTFKSTSIDGIADTGTTLLYLPATVVSAYWAQVSGAKSSSSVGGYVFPCSATLPSFTFGVGSARIVIPGDYIDFGPISTGSSSCFGGIQSSAGIGINIFGDVALKAAFVVFNGATTPTLGFASK” it is “not failed”. With “STMEKSVLGGQDQLRVRVTELEDEVRNLRKINRDLFDFSTRFITRPAK” the entry was “not failed”. Consider “STNLQEKGLVVSIVDTLMFDTGRAEVKPDFQKKLVEIGEILKTIDNYIRIEGHTDNTPISNSQYASNIELGSARSNNVEHLFIDVSKIPVTQMYTVSYADTRPVADNNSEAGKARNRRVDIVILNSKFNAVEQESSGK”, for which the protein production result is reported as “failed”. With “SVILFDRTFISPTEISDIYTKDAIGMKKADYLRKKLTSIFPEIEVQNLPDTINISNYLNDSDFDIIIVNSEHFNIKLLSELNDLLYKISTPYMYAWIEGSRGYIGPLIYPPDTSCFNCYLTWRFFGTFMEDKIKAINNYGSSGYIFPLDKIIGALTVLEVCKAIGSLGTPLFNKIILVEVLPTLTIRYIPILKDPKCNVCEG” the entry was “failed”. With “TAGKKAAMDRLSTQEGIISALAIDQRGALKKMIKALDVEPTDAQIETFKELVSKELTPYASAILLDPEYGLPAAKARDTEAGLLLAYEKTGYDATTPGRLPDLLADWSVLRLKEEGADAIKFLLYYDVDEDPEINHQKHVFIERLGSECAEEDLPFYLELVSYDAQIADATSLEYAKVKPHKVNEMMKEFSKPQYKVDVLKVEVPVNMNFVEGFAPAETAYTKEEAANYFLEQSQATDLPFIFLSAGVSTELFQETLRFAKEAGSTFNGVLCGRATWKNGVKPFVEAGETAACDWLKTEGRENIESLNEVIAATASSWHAKVQVNE” the entry was “failed”; with “TALIASGLVPQPFYFYGFLPRKKNEQKADLAKLARRHETVVLYESPFRVAKTLTLLATVCEGTRPIVACRELTKRYEEFARGTLAEMVTWAQDHQLKGEFVLLIGGNPDK”, “failed”. The entry for “TDYDNREKSADIALLKEMNSLRDIIENNSDWIWEVDVAGRYTFSSAKSIELLGRLPHEVIGKTPFDFMPKDEAHRVGKLFAEIAAERIPFAGLQNRNIRADGSEVLIESSGIPLFDHNGEFKGYRGIDRN” is “failed”.
